Results from publication PMC12144448.

Target: Drosophila CMP-sialic acid synthetase (CSAS), wild-type, 3xFLAG-tagged (Drosophila)
Experiment: SEC; clarified lysate of flies expressing CSAS-FLAG on a calibrated Superdex 75 10/30 HR column; 150 mM NaCl in 20 mM potassium phosphate pH 6.8; fractions analysed by FLAG Western blot

Substance “Drosophila CMP-sialic acid synthetase (CSAS), wild-type, 3xFLAG-tagged (enzyme)” has a stoichiometry N of 2.
